# Test results from patent US7183377 (US Dept. of Health and Human Services, dated 2007).
# T1: Wingless (Wg), the Drosophila homolog of Wnt-1 (Drosophila, UniProt P09615 18-468)
# T1 construct: mature; Used as unpurified conditioned medium in the ELISAs
# T1 sequence (looked up): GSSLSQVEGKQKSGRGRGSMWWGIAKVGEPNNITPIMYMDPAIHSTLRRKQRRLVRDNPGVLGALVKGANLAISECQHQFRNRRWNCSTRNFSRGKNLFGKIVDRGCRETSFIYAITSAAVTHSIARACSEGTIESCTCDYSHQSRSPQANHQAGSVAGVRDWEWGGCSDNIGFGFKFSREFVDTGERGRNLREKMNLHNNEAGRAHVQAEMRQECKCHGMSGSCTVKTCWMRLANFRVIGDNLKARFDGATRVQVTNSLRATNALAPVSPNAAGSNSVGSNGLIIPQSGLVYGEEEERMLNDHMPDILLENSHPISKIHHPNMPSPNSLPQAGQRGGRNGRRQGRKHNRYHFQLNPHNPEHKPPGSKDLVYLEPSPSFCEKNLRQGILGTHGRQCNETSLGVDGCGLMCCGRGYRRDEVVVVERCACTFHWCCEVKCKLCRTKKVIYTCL
# Target: T1, Wingless (Wg), the Drosophila homolog …
# Test: ELISA: FRP coated at 100 ng/well, Wg-containing S2 conditioned medium, detection with anti-Wg antibody
# From the text: As an alternative, cell-free systems to study the binding of FRP and Wnts were developed. These systems have the advantage of simplicity, as the profile of endogenous Frizzled/FRP/Wnt expression would not be an issue. Moreover, experiments now can be performed with purified recombinant FRP. One model system disclosed in detail below makes use of an ELISA type of format. Microtiter wells are first coated with purified FRP, and then blocked with a large excess of bovine serum albumin (BSA). To minimize the problems associated with solubilizing Wnts, initial studies focused on studying FRP binding to Wingless (Wg) because an expression system is available that releases Wg into conditioned medium. Van Leeuwen, et al., Nature 368:342–344 (1994). Although expression of a heat shock-Wg construct in transfected S2 insect cells results in only a small fraction of recombinant Wg in the media, it is sufficient for binding studies and obviates the need for detergents or other agents to extract the protein from cell surfaces or extracellular matrix. […] After washing, the wells are sequentially incubated with antibody to Wg, secondary antiserum (against the Wg antibody) conjugated to alkaline phosphatase, and p-nitrophenol phosphate. […]
# FIG. 13 illustrates the binding of FRP and Wg. […] Color development, monitored at 405 nm, was indicative of Wg binding in the well.
binder,measurement,value
"human Frizzled-related protein (FRP) (receptor, The natural protein purified from M426 medium began 11 residues further downstream (residue 38), with a second N-terminus three residues later; The N-terminus of the recombinant protein is not reported; In the ELISAs it was untagged full-length FRP purified from the medium of MDCK cells transfected with pcDNA3.1(+); also called hFRP; recombinant FRP) VGSASEYDYVSFQSDIGPYQSGRFYTKPPQCVDIPADLRLCHNVGYKKMVLPNLLEHETMAEVKQQASSWVPLLNKNCHAGTQVFLCSLFAPVCLDRPIYPCRWLCEAVRDSCEPVMQFFGFYWPEMLKCDKFPEGDVCIAMTPPNATEASKPQGTTVCPPCDNELKSEAIIEHLCASEFALRMKIKEVKKENGDKKIVPKKKKPLKLGPIKKKDLKKLVLYLKNGADCPCHQLDNLSHHFLIMGRKVKSQYLLTAIHKWDKKNKEFKNFMKKMKNHECPTFQSVFK",binding result,binds
